Read-outs that look alike come from different tables or passages of the source. One block for each binder: values may come before it.
Key:
[1] = target: human FcRn (with beta2-microglobulin) (human); assay: SPR, pH 7.0
human IL-6 receptor [2] = target: T1, human IL-6 receptor (human); assay: SPR, 3 uM CaCl2, 37C
T1 chain: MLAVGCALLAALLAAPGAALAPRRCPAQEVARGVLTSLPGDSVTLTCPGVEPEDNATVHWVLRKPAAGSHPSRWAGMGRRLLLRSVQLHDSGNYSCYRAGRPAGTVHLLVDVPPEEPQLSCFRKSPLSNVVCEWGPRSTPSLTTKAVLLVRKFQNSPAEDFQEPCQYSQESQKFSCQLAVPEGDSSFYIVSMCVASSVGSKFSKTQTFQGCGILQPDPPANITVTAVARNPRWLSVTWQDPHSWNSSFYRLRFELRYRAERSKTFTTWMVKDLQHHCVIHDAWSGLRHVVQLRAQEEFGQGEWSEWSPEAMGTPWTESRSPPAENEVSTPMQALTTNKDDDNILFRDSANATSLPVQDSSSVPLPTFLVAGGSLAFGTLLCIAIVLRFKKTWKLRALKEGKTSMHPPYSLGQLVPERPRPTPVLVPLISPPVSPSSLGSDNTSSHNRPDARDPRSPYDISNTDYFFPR

human IL-6 receptor [3] = target: T1, human IL-6 receptor; assay: SPR, 3 uM CaCl2, 37C
[4] = target: human FcRn (with beta2-microglobulin) (human); assay: SPR, pH 7.0; remark: listed apart in the source
[5] = target: human FcRn (with beta2-microglobulin) (human); assay: SPR, pH 7.0; remark: listed apart in the source
[6] = target: human FcRn (with beta2-microglobulin) (human); assay: SPR, pH 7.0; remark: listed apart in the source
[7] = target: human FcRn (with beta2-microglobulin) (human); assay: SPR, pH 7.0; remark: listed apart in the source
[8] = target: human FcRn (with beta2-microglobulin) (human); assay: SPR, pH 7.0; remark: listed apart in the source
human FcgRIIa(R) [9] = target: T2, human FcgRIIa(R) (human); assay: SPR
T2 chain: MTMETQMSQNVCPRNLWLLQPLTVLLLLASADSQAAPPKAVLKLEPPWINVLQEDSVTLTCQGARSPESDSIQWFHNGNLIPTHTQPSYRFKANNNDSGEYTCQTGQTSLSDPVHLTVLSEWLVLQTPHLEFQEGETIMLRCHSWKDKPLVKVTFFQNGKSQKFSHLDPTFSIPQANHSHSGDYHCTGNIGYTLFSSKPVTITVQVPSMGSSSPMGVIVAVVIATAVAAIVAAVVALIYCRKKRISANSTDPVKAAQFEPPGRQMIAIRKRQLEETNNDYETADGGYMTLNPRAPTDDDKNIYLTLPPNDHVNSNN

human FcgRIa [10] = target: human FcgRIa (human); assay: SPR
human FcgRIa (human), sequence (chain, as listed by the source): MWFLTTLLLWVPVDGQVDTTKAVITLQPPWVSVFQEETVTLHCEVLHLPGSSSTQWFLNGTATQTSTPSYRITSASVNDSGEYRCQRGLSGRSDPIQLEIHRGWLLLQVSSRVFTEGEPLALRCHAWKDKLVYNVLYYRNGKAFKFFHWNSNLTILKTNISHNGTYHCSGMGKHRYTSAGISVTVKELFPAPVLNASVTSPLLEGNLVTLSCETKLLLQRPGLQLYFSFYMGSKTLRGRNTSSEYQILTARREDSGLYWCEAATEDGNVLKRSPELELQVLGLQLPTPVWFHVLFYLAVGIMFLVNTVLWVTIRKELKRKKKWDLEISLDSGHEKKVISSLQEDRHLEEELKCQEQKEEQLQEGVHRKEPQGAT

human FcgRIIb [11] = target: T3, human FcgRIIb (human); assay: SPR
T3 chain: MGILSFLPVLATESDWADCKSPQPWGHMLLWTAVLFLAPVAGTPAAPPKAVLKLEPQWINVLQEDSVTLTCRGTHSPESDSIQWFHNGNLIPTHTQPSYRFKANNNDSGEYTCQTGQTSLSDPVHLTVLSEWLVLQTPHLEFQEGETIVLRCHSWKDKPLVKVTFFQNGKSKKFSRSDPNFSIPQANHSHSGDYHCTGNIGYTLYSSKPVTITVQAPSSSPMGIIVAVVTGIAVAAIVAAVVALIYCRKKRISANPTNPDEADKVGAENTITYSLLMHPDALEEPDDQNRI

human FcgRIIb [12] = target: T3, human FcgRIIb; assay: SPR
human FcgRIIa(H) [13] = target: T4, human FcgRIIa(H) (human); assay: SPR
T4 chain: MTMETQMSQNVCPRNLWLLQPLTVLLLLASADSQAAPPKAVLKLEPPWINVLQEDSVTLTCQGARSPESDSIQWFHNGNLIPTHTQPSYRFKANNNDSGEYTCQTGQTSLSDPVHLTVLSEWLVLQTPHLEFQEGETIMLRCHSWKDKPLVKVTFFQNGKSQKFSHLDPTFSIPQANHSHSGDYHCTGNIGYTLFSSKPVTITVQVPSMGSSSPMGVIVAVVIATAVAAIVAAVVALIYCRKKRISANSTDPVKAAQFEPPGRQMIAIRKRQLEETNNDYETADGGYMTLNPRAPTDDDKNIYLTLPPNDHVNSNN

human FcgRIIa(R) [14] = target: T2, human FcgRIIa(R); assay: SPR
human FcgRIa [15] = target: human FcgRIa (human); assay: SPR; remark: listed apart in the source
human FcgRIIa(R) [16] = target: T2, human FcgRIIa(R); assay: SPR
human FcgRIIa(H) [17] = target: T4, human FcgRIIa(H); assay: SPR
human FcgRIa [18] = target: human FcgRIa (human); assay: SPR; remark: listed apart in the source
human FcgRIIa(H) [19] = target: T4, human FcgRIIa(H); assay: SPR
human FcgRIIb [20] = target: T3, human FcgRIIb; assay: SPR
human FcgRIIIa(V) [21] = target: human FcgRIIIa(V) (human); assay: SPR
human FcgRIIIa(V) (human), sequence (chain, as listed by the source): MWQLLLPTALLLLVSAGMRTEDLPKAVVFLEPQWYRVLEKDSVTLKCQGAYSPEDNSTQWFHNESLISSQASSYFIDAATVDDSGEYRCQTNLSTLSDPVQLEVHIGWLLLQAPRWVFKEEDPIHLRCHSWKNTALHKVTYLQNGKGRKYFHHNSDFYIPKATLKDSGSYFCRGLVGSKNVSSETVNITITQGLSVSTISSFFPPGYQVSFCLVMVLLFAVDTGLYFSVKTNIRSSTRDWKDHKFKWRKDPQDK

human FcgRIIb [22] = target: T3, human FcgRIIb; assay: SPR
human FcgRIIb [23] = target: T3, human FcgRIIb; assay: SPR
human FcgRIIIa(V) [24] = target: human FcgRIIIa(V) (human); assay: SPR; remark: listed apart in the source
human FcgRIIIa(V) [25] = target: human FcgRIIIa(V) (human); assay: SPR; remark: listed apart in the source

Kd [1]: 140 nM
B1: IgG4-F890 (antibody)
chain 1: QVQLQESGPGLVKPSETLSLTCAVSGHSISHDHAWSWVRQPPGEGLEWIGFISYSGITNYNPSLQGRVTISRDNSKNTLYLQMNSLRAEDTAVYYCARSLARTTAMDYWGEGTLVTVSSASTKGPSVFPLAPCSRSTSESTAALGCLVKDYFPEPVTVSWNSGALTSGVHTFPAVLQSSGLYSLSSVVTVPSSSLGTKTYTCNVDHKPSNTKVDKRVESKYGPPCPPCPAPEFLGGPSVFLFPPKPKDTLYISRTPEVTCVVVDVSQEDPEVQFNWYVDGVEVHNAKTKPREEQFNSTYRVVSVLTVLHQDWLNGKEYKCKVSNKGLPSSIEKTISKAKGQPREPQVYTLPPSQEEMTKNQVSLTCLVKGFYPSDIAVEWESNGQPENNYKTTPPVLDSDGSFFLYSRLTVDKSRWQEGNVFSCSVMHEALHYHVTQKSLSLSL
chain 2: not shown

Kd [4]: 22 nM
Kd [5]: 22 nM
B3: IgG1-F698 (antibody)
chain 1: QVQLQESGPGLVKPSETLSLTCAVSGHSISHDHAWSWVRQPPGEGLEWIGFISYSGITNYNPSLQGRVTISRDNSKNTLYLQMNSLRAEDTAVYYCARSLARTTAMDYWGEGTLVTVSSASTKGPSVFPLAPSSKSTSGGTAALGCLVKDYFPEPVTVSWNSGALTSGVHTFPAVLQSSGLYSLSSVVTVPSSSLGTQTYICNVNHKPSNTKVDKKVEPKSCDKTHTCPPCPAPELLGGPSVFLFPPKPKDTLYISRTPEVTCVVVDVSHEDPEVKFNWYVDGVEVHEAKTKPREEQYNSTYRVVSVLQVLHADWLNGKEYKCKVSNKALPAPIEKTISKAKGQPREPQVYTLPPSRDELTKNQVSLTCLVKGFYPSDIAVEWESNGQPENNYKTTPPVLDSDGSFFLYSKLTVDKSRWQQGNVFSCSVMHEALHYHYTQKSLSLSP
chain 2: not shown

Kd [4]: 23 nM
B5: IgG1-F699 (antibody)
chain 1: QVQLQESGPGLVKPSETLSLTCAVSGHSISHDHAWSWVRQPPGEGLEWIGFISYSGITNYNPSLQGRVTISRDNSKNTLYLQMNSLRAEDTAVYYCARSLARTTAMDYWGEGTLVTVSSASTKGPSVFPLAPSSKSTSGGTAALGCLVKDYFPEPVTVSWNSGALTSGVHTFPAVLQSSGLYSLSSVVTVPSSSLGTQTYICNVNHKPSNTKVDKKVEPKSCDKTHTCPPCPAPELLGGPKVFLFPPKPKDTLYISRTPEVTCVVVDVSHEDPEVKFNWYVDGVEVHEAKTKPREEQYNSTYRVVSVLQVLHADWLNGKEYKCKVSNKALPAPIEKTISKAKGQPREPQVYTLPPSRDELTKNQVSLTCLVKGFYPSDIAVEWESNGQPENNYKTTPPVLDSDGSFFLYSKLTVDKSRWQQGNVFSCSVMHEALHYHYTQKSLSLSP
chain 2: not shown

Kd (human FcgRIIa(R) [9]): 1000 nM
Kd (human FcgRIa [10]): 0.32 nM
Kd (human FcgRIIb [11]): 2600 nM
Kd (human FcgRIIb [12]): 5.3 µM
Kd (human FcgRIIa(H) [13]): 670 nM
Kd (human FcgRIIa(R) [14]): 1000 nM
Kd (human FcgRIa [15]): 0.32 nM
Kd (human FcgRIIa(R) [16]): 1000 nM
Kd (human FcgRIIa(H) [17]): 670 nM
Kd (human FcgRIa [18]): 0.32 nM
Kd (human FcgRIIa(H) [19]): 670 nM
Kd (human FcgRIIb [20]): 2600 nM
Kd (human FcgRIIIa(V) [21]): 350 nM
Kd (human FcgRIIb [22]): 5.3 µM
Kd (human FcgRIIb [23]): 2600 nM
Kd (human FcgRIIIa(V) [24]): 350 nM
Kd (human FcgRIIIa(V) [25]): 350 nM
B8: IL6R-G1d/IL6R-L (IgG1) (antibody)
chain 1: not shown
chain 2: DIQMTQSPSSLSASVGDRVTITCRASQDISSYLNWYQQKPGKAPKLLIYYTSRLHSGVPSRFSGSGSGTDFTFTISSLQPEDIATYYCQQGNTLPYTFGQGTKVEIK

Kd (human FcgRIIb [11]): 3100 nM
Kd (human FcgRIIa(H) [13]): 770 nM
Kd (human FcgRIIa(R) [14]): 1100 nM
Kd (human FcgRIa [15]): 0.42 nM
Kd (human FcgRIIa(R) [16]): 1100 nM
Kd (human FcgRIIa(H) [17]): 770 nM
Kd (human FcgRIa [18]): 0.42 nM
Kd (human FcgRIIb [20]): 3100 nM
Kd (human FcgRIIIa(V) [24]): 330 nM
Kd (human FcgRIIIa(V) [25]): 330 nM
B9: IL6R-B3/IL6R-L (antibody)
chain 1: not shown
chain 2: DIQMTQSPSSLSASVGDRVTITCRASQDISSYLNWYQQKPGKAPKLLIYYTSRLHSGVPSRFSGSGSGTDFTFTISSLQPEDIATYYCQQGNTLPYTFGQGTKVEIK

The next lines start with the binder.

B2: FH4-IgG1 (antibody, V domains shown)
VH: QVQLVQSGAEVKKPGSSVKVSCKASGGTFSSYAISWVRQAPGQGLEWMGGIIPIFGTANYAQKFQGRVTITADESTSTAYMELSSLRSEDTAVYYCARERDYYDSSGYYDAFDIWGQGTMVTVSS
VL: ETTVTQSPSFLSASVGDRVTITCITTTDIDDDMNWFQQEPGKAPKLLISEGNILRPGVPSRFSSSGYGTDFTLTISKLQPEDFATYYCLQSDNLPFTFGQGTKLEIKR
Kd (human IL-6 receptor [2]): ~34 µM
Kd (human IL-6 receptor [3]): > 34 µM

B4: F1326 (antibody)
chain 1: QVQLQESGPGLVKPSETLSLTCAVSGHSISHDHAWSWVRQPPGEGLEWIGFISYSGITNYNPSLQGRVTISRDNSKNTLYLQMNSLRAEDTAVYYCARSLARTTAMDYWGEGTLVTVSSASTKGPSVFPLAPSSKSTSGGTAALGCLVKDYFPEPVTVSWNSGALTSGVHTFPAVLQSSGLYSLSSVVTVPSSSLGTQTYICNVNHKPSNTKVDKKVEPKSCDKTHTCPPCPAPEAAGGPSVFLFPPKPKDVLYISRTPEVTCVVVDVSHEDPEVKFNWYVDGVEVHNAKTKPREEQYNSTYRVVSVLQPLHADWLNGKEYKCKVSNKALPAPIEKTISKAKGQPREPQVYTLPPSRDELTKNQVSLTCLVKGFYPSDIAVEWESNGQPENNYKTTPPVLDSDGSFFLYSKLTVDKSRWQQGNVFSCSVMHEALHYHVTQKSLSLSP
chain 2: not shown
Kd [6]: 11 nM
Kd [7]: 11 nM

B6: F947 (antibody)
chain 1: QVQLQESGPGLVKPSETLSLTCAVSGHSISHDHAWSWVRQPPGEGLEWIGFISYSGITNYNPSLQGRVTISRDNSKNTLYLQMNSLRAEDTAVYYCARSLARTTAMDYWGEGTLVTVSSASTKGPSVFPLAPSSKSTSGGTAALGCLVKDYFPEPVTVSWNSGALTSGVHTFPAVLQSSGLYSLSSVVTVPSSSLGTQTYICNVNHKPSNTKVDKKVEPKSCDKTHTCPPCPAPELLGGPSVFLFPPKPKDVLYISRTPEVTCVVVDVSHEDPEVKFNWYVDGVEVHNAKTKPREEQYNSTYRVVSVLQPLHADWLNGKEYKCKVSNKALPAPIEKTISKAKGQPREPQVYTLPPSRDELTKNQVSLTCLVKGFYPSDIAVEWESNGQPENNYKTTPPVLDSDGSFFLYSKLTVDKSRWQQGNVFSCSVMHEALHYHVTQKSLSLSP
chain 2: not shown
Kd [8]: 11 nM
Kd [6]: 11 nM
Kd [7]: 11 nM

B7: 6RL#9-IgG1 (antibody, V domains shown)
VH: QVQLVQSGAEVKKPGASVKVSCKASGYTFTSYYMHWVRQAPGQGLEWMGIINPSGGSTSYAQKFQGRVTMTRDTSTSTVYMELSSLRSEDTAVYYCARDDPGGGEYYFDYWGQGTLVTVSS
VL: QSVLTQPPSVSGAPGQRVTISCTGSRSNMGAGYDVHWYQLLPGAAPKLLISHNTHRPSGVPDRFSGSKSGASASLAITGLQAEDEADYYCQSHDSSLSAVVFGGGTKLTVLS
Kd (human IL-6 receptor [2]): ~31 µM
Kd (human IL-6 receptor [3]): > 31 µM
